According to patent US20200354425A1 (DONG-A ST CO., LTD., published 2020):
Where two headings read alike, the source gives them in different places. *1 amine or outer side, *2 acyl side, *3 side chain or, on linkers, in order; H or OH if unused. Bridges are numbered along the chain shown (N, C = ends). Where no end group is shown, it is not given here. Side-chain parts run from the residue outwards. [ ]: non-standard residue; d: D form. The star is where a group is joined. γGlu = O=C(O)[C@H](CCC(=O)[*:2])N[*:1]; Stearoyl = CCCCCCCCCCCCCCCCCC(=O)*; AEEA = NCCOCCOCC(=O)O; Aib = CC(C)(N)C(=O)O

B1: Compound 14 (peptide)
peptide: HXQGTFTSDXSKYLDERRAKDFVQWLMNTK
modifications: Aib at position 2; Z at position 10 = Lys([(2-(2-(2-aminoethoxy)ethoxy)acetoyl)2]-[gamma glutamicacid]-[octadecanoyl]); lactam ring formed between E and K (positions 16 and 20)
B2: Compound 42 (peptide)
peptide: HXQGTFTSDXSKYLDXRRAQDFVQWLMNTK
modifications: not fully specified; Aib at positions 2 and 16; Z at position 10 = Lys([(2-(2-(2-aminoethoxy)ethoxy)acetoyl)2]-[gammaglutamicacid]-[15-carboxypeptadecanoyl]) (so in the source)
B3: Compound 11 (peptide)
peptide: HXQGTFTSDXSKYLDXRRAQDFVQWLMNTK
modifications: Aib at positions 2 and 16; Z at position 10 = Lys([Gly-Gly-Ser-Gly-Ser-Gly]-[gamma glutamic acid]-[octadecanoyl])
B4: Compound 17 (peptide)
peptide: HXQGTFTSDXSKYLDXRRAQDFVQWLMNTK
modifications: Aib at positions 2 and 16; Z at position 10 = Lys([(2-(2-(2-aminoethoxy)ethoxy)acetoyl)]-[gamma glutamicacid]-[octadecanoyl])
B5: Compound 43 (peptide)
peptide: HXQGTFTSDXSKYLDXRRAQDFVQWLMNTK
modifications: Aib at positions 2 and 16; Z at position 10 = Lys([(2-(2-(2-aminoethoxy)ethoxy)acetoyl)2]-[gammaglutamicacid]-[17-carboxyheptadecanoyl])
B6: Compound 6 (peptide)
peptide: HXQGTFTSDXSKYLDXRRAQDFVQWLMNTK
modifications: Aib at positions 2 and 16; Z at position 10 = Lys([(2-(2-(2-aminoethoxy)ethoxy)acetoyl)2]-[gamma glutamicacid]-[octadecanoyl]); C-terminal amide (-NH2)
B7: Compound 10 (peptide)
peptide: HXQGTFTSDXSKYLDXRRAQDFVQWLMNTK
modifications: Aib at positions 2 and 16; Z at position 10 = Lys([(2-(2-(2-aminoethoxy)ethoxy)acetoyl)3]-[gamma glutamicacid]-[octadecanoyl])
B8: Compound 34 (peptide)
peptide: HXQGTFTSDXSKYLDERRAKDFVQWLMNTK
modifications: not fully specified; Aib at position 2; Z at position 10 = Lys([(2-(2-(2-aminoethoxy)ethoxy)acetoyl)2]-[gamma glutamicacid]-[octadecanoyl]); a ring formed between E and K (positions 16 and 20) via 4-aminobenzoyl cross-link
B9: Compound 20 (peptide)
peptide: HXQGTFTSDXSKYLDERRAKDFVQWLMNTK
modifications: Aib at position 2; Z at position 10 = Lys([(2-(2-(2-aminoethoxy)ethoxy)acetoyl)3]-[gamma glutamicacid]-[octadecanoyl]); lactam ring formed between E and K (positions 16 and 20)
B10: Compound 35 (peptide)
peptide: HXQGTFTSDXSKYLDERRAKDFVQWLMNTK
modifications: not fully specified; Aib at position 2; Z at position 10 = Lys([(2-(2-(2-aminoethoxy)ethoxy)acetoyl)2]-[gamma glutamicacid]-[octadecanoyl]); a ring formed between E and K (positions 16 and 20) via glycine cross-link
B11: Compound 47 (peptide)
peptide: H-H[Aib]QGTFTSDYSKYLDEKRAKEFVQWLMNTKC-OH
modifications: lactam 16-20
SMILES: CSCC[C@H](NC(=O)[C@H](CC(C)C)NC(=O)[C@H](Cc1c[nH]c2ccccc12)NC(=O)[C@H](CCC(N)=O)NC(=O)[C@@H](NC(=O)[C@H](Cc1ccccc1)NC(=O)[C@H](CCC(=O)O)NC(=O)[C@@H]1CCCCNC(=O)CC[C@H](NC(=O)[C@H](CC(=O)O)NC(=O)[C@H](CC(C)C)NC(=O)[C@H](Cc2ccc(O)cc2)NC(=O)[C@H](CCCCN)NC(=O)[C@H](CO)NC(=O)[C@H](Cc2ccc(O)cc2)NC(=O)[C@H](CC(=O)O)NC(=O)[C@H](CO)NC(=O)[C@@H](NC(=O)[C@H](Cc2ccccc2)NC(=O)[C@@H](NC(=O)CNC(=O)[C@H](CCC(N)=O)NC(=O)C(C)(C)NC(=O)[C@@H](N)Cc2c[nH]cn2)[C@@H](C)O)[C@@H](C)O)C(=O)N[C@@H](CCCCN)C(=O)N[C@@H](CCCNC(=N)N)C(=O)N[C@@H](C)C(=O)N1)C(C)C)C(=O)N[C@@H](CC(N)=O)C(=O)N[C@H](C(=O)N[C@@H](CCCCN)C(=O)N[C@@H](CS)C(=O)O)[C@@H](C)O
B12: Compound 29 (peptide)
peptide: HXQGTFTSDXSKYLDERRAEDFVQWLMNTK
modifications: Aib at position 2; Z at position 10 = Lys([(2-(2-(2-aminoethoxy)ethoxy)acetoyl)2]-[gamma glutamicacid]-[octadecanoyl]); a ring formed between E and E (positions 16 and 20) via 1,4-phenylenediamino cross-link
B13: Compound 37 (peptide)
peptide: H-H[Aib]QGTFTSDK([AEEA-AEEA-γGlu-Stearoyl])SKYLDDRRAKDFVQWLMNTK-OH
modifications: bridge 16-20; not fully specified (bridges); printed as H-HAibQGTFTSDZSKYLDDRRAKDFVQWLMNTK-OH
B14: Compound 33 (peptide)
peptide: HXQGTFTSDXSKYLDERRAKDFVQWLMNTK
modifications: Aib at position 2; Z at position 10 = Lys([(2-(2-(2-aminoethoxy)ethoxy)acetoyl)2]-[gamma glutamicacid]-[octadecanoyl]); a ring formed between E and K (positions 16 and 20) via 1-aminocyclohexan-4-carbonyl cross-link
B15: Compound 3 (peptide)
peptide: HXQGTFTSDXSKYLDXRRAQDFVQWLMNTK
modifications: Aib at positions 2 and 16; Z at position 10 = Lys([(2-(2-(2-aminoethoxy)ethoxy)acetoyl)2]-[gamma glutamicacid]-[octadecanoyl])
B16: Compound 25 (peptide)
peptide: HXQGTFTSDXSKYLDERRAKDFVQWLMNTK
modifications: Aib at position 2; Z at position 10 = Lys([(2-(2-(2-aminoethoxy)ethoxy)acetoyl)4]-[gamma glutamicacid]-[octadecanoyl]); lactam ring formed between E and K (positions 16 and 20)
B17: Compound 38 (peptide)
peptide: H-H[Aib]QGTFTSDK([AEEA-AEEA-γGlu-Stearoyl])SKYLDDRRAKDFVQWLMNTK-OH
modifications: bridge 16-20; not fully specified (bridges); printed as H-HAibQGTFTSDZSKYLDDRRAKDFVQWLMNTK-OH
B18: Compound 23 (peptide)
peptide: HXQGTFTSDXSKYLDERRAEDFVQWLMNTK
modifications: Aib at position 2; Z at position 10 = Lys([(2-(2-(2-aminoethoxy)ethoxy)acetoyl)2]-[gamma glutamicacid]-[octadecanoyl]); a ring formed between E and E (positions 16 and 20) via 1,4-piperazinyl cross-link
B19: Compound 30 (peptide)
peptide: HXQGTFTSDXSKYLDERRAEDFVQWLMNTK
modifications: Aib at position 2; Z at position 10 = Lys([(2-(2-(2-aminoethoxy)ethoxy)acetoyl)2]-[gamma glutamicacid]-[octadecanoyl]); a ring formed between E and E (positions 16 and 20) via 1,2-ethylenediamino cross-link
B20: Compound 36 (peptide)
peptide: HXQGTFTSDXSKYLDERRAKDFVQWLMNTK
modifications: not fully specified; Aib at position 2; Z at position 10 = Lys([(2-(2-(2-aminoethoxy)ethoxy)acetoyl)2]-[gamma glutamicacid]-[octadecanoyl]); a ring formed between E and K (positions 16 and 20) via leucine cross-link
B21: Compound 44 (peptide)
peptide: HXQGTFTSDXSKYLDXRRAQDFVQWLMNTK
modifications: not fully specified; Aib at positions 2 and 16; Z at position 10 = Lys([(2-(2-(2-aminoethoxy)ethoxy)acetoyl)2]-[gammaglutamicacid]-[19-carboxypeptadecanoyl]) (so in the source)
B22: Compound 4 (peptide)
peptide: HSQGTFTSDXSKYLDSRRAQDFVQWLMNTK
modifications: Z at position 10 = Lys([(2-(2-(2-aminoethoxy)ethoxy)acetoyl)2]-[gamma glutamicacid]-[octadecanoyl]); C-terminal amide (-NH2)
B23: Compound 7 (peptide)
peptide: HXQGTFTSDXSKYLDXRRAQDFVQWLMNTKRNRNNIA
modifications: Aib at positions 2 and 16; Z at position 10 = Lys([(2-(2-(2-aminoethoxy)ethoxy)acetoyl)2]-[gamma glutamicacid]-[octadecanoyl])
B24: Compound 19 (peptide)
peptide: HXQGTFTSDXSKYLDERRAKDFVQWLMNTK
modifications: Aib at position 2; Z at position 10 = Lys([(2-(2-(2-aminoethoxy)ethoxy)acetoyl)2]-[gamma glutamicacid]-[octadecanoyl]); lactam ring formed between E and K (positions 16 and 20); C-terminal amide (-NH2)

Experiments:
Human GLP-1 receptor [1] = target: T1, Human GLP-1 receptor (human, UniProt P43220)
Human glucagon receptor [2] = target: T2, Human glucagon receptor (human, UniProt P47871)
Human GLP-1 receptor [3] = target: T1, Human GLP-1 receptor; test: cell-based or functional assay
Human glucagon receptor [4] = target: T2, Human glucagon receptor; test: cell-based or functional assay

Molecule | EC50(pM), CRE-driven luciferase activity (Human GLP-1 receptor [1]) [pM] | EC50(pM), CRE-driven luciferase activity (Human glucagon receptor [2]) [pM] | EC50(pM), CRE-driven luciferase activity (Human GLP-1 receptor [3]) [pM] | EC50(pM), CRE-driven luciferase activity (Human glucagon receptor [4]) [pM]
MEDI0382 (peptide) | < 10 | 10 to 100 |  | 
B1 |  |  | < 10 | < 10
H[Aib]QGTFTSDYSKYLDK([AEEA-AEEA-γGlu-Stearoyl])RRAQDFVQWLMNTK [Compound 15] |  |  | < 10 | < 10
H[Aib]QGTFTSDK([AEEA-AEEA-γGlu-Stearoyl])SKYLDKRRADDFVQWLMNTK (lactam 16-20) [Compound 27] |  |  | < 10 | < 10
H[Aib]QGTFTSDK([AEEA-AEEA-γGlu-Stearoyl])SKYLDKRRAEDFVQWLMNTK (lactam 16-20) [Compound 21] |  |  | < 10 | < 10
B2 |  |  |  | > 1000
B3 |  |  | < 10 | 
H[Aib]QGTFTSDK([AEEA-AEEA-γGlu-Stearoyl])SKYLD[Aib]RRAQDFVQWLLRAK [Compound 12] |  |  | < 10 | < 10
H[Aib]QGTFTSDYSKYLD[Aib]RRAK([AEEA-AEEA-γGlu-Stearoyl])DFVQWLMNTK [Compound 16] |  |  | < 10 | < 10
B4 |  |  | < 10 | < 10
B5 |  |  | > 1000 | > 1000
B6 |  |  | < 10 | < 10
H[Aib]QGTFTSDK([AEEA-AEEA-γGlu-Stearoyl])SKYLDSRRAQDFVQWLMNTK [Compound 2] |  |  | < 10 | < 10
B7 |  |  | < 10 | < 10
B8 |  |  | < 10 | < 10
B9 |  |  | < 10 | < 10
B10 |  |  | < 10 | < 10
B11 |  |  | < 10 | 
H[Aib]QGTFTSK([AEEA-AEEA-γGlu-Stearoyl])YSKYLD[Aib]RRAQDFVQWLMNTK [Compound 40] |  |  |  | > 1000

Molecule | EC50(pM), CRE-driven luciferase activity (Human GLP-1 receptor [1]) [pM] | EC50(pM), CRE-driven luciferase activity (Human glucagon receptor [2]) [pM] | EC50(pM), CRE-driven luciferase activity (Human GLP-1 receptor [3]) [pM] | EC50(pM), CRE-driven luciferase activity (Human glucagon receptor [4]) [pM]
B12 |  |  | < 10 | < 10
B13 |  |  | < 10 | < 10
H[Aib]QGTFTSDK([AEEA-AEEA-γGlu-Stearoyl])SKYLDCRRACDFVQWLMNTK (linker 16-20 via 1,3‑phenyhenedimethyl) [Compound 22] |  |  | < 10 | < 10
B14 |  |  | < 10 | < 10
B15 |  |  | < 10 | < 10
B16 |  |  | < 10 | < 10
H[Aib]QGTFTSDK([AEEA-AEEA-γGlu-Stearoyl])SKYLDKRRAEDFVQWLMNTK (linker 16-20 via 4‑carbonylpiperidin‑1‑yl) [Compound 32] |  |  | < 10 | < 10
B17 |  |  | < 10 | < 10
B18 |  |  | < 10 | < 10
B19 |  |  | < 10 | < 10
H[Aib]QGTFTSDK([AEEA-AEEA-γGlu-Stearoyl])SKYLDDRRAKDFVQWLMNTK (lactam 16-20) [Compound 26] |  |  | < 10 | < 10
H[Aib]QGTFTSDKSKYLD[Aib]RRAQDFVQWLMNTK [Compound 39] |  |  | > 1000 | > 1000
B20 |  |  | < 10 | < 10
B21 |  |  |  | > 1000
H[Aib]QGTFTSDK([AEEA-AEEA-γGlu-Stearoyl])SKYLDKRRAKDFVQWLMNTK (linker 16-20 via 1,4‑phenylenebiscarbconyl) [Compound 31] |  |  | < 10 | < 10
B22 |  |  | < 10 | 
B23 |  |  | < 10 | < 10
B24 |  |  | < 10 | < 10
